Target: the molecule itself
Test: SEC

B1: FANCA-WT (natural protein, human, UniProt O15360 1-1455, looked up)
chain: MSDSWVPNSASGQDPGGRRRAWAELLAGRVKREKYNPERAQKLKESAVRLLRSHQDLNALLLEVEGPLCKKLSLSKVIDCDSSEAYANHSSSFIGSALQDQASRLGVPVGILSAGMVASSVGQICTAPAETSHPVLLTVEQRKKLSSLLEFAQYLLAHSMFSRLSFCQELWKIQSSLLLEAVWHLHVQGIVSLQELLESHPDMHAVGSWLFRNLCCLCEQMEASCQHADVARAMLSDFVQMFVLRGFQKNSDLRRTVEPEKMPQVTVDVLQRMLIFALDALAAGVQEESSTHKIVRCWFGVFSGHTLGSVISTDPLKRFFSHTLTQILTHSPVLKASDAVQMQREWSFARTHPLLTSLYRRLFVMLSAEELVGHLQEVLETQEVHWQRVLSFVSALVVCFPEAQQLLEDWVARLMAQAFESCQLDSMVTAFLVVRQAALEGPSAFLSYADWFKASFGSTRGYHGCSKKALVFLFTFLSELVPFESPRYLQVHILHPPLVPGKYRSLLTDYISLAKTRLADLKVSIENMGLYEDLSSAGDITEPHSQALQDVEKAIMVFEHTGNIPVTVMEASIFRRPYYVSHFLPALLTPRVLPKVPDSRVAFIESLKRADKIPPSLYSTYCQACSAAEEKPEDAALGVRAEPNSAEEPLGQLTAALGELRASMTDPSQRDVISAQVAVISERLRAVLGHNEDDSSVEISKIQLSINTPRLEPREHMAVDLLLTSFCQNLMAASSVAPPERQGPWAALFVRTMCGRVLPAVLTRLCQLLRHQGPSLSAPHVLGLAALAVHLGESRSALPEVDVGPPAPGAGLPVPALFDSLLTCRTRDSLFFCLKFCTAAISYSLCKFSSQSRDTLCSCLSPGLIKKFQFLMFRLFSEARQPLSEEDVASLSWRPLHLPSADWQRAALSLWTHRTFREVLKEEDVHLTYQDWLHLELEIQPEADALSDTERQDFHQWAIHEHFLPESSASGGCDGDLQAACTILVNALMDFHQSSRSYDHSENSDLVFGGRTGNEDIISRLQEMVADLELQQDLIVPLGHTPSQEHFLFEIFRRRLQALTSGWSVAASLQRQRELLMYKRILLRLPSSVLCGSSFQAEQPITARCEQFFHLVNSEMRNFCSHGGALTQDITAHFFRGLLNACLRSRDPSLMVDFILAKCQTKCPLILTSALVWWPSLEPVLLCRWRRHCQSPLPRELQKLQEGRQFASDFLSPEAASPAPNPDWLSAAALHFAIQQVREENIRKQLKKLDCEREELLVFLFFFSLMGLLSSHLTSNSTTDLPKAFHVCAAILECLEKRKISWLALFQLTESDLRLGRLLLRVAPDQHTRLLPFAFYSLLSYFHEDAAIREEAFLHVAVDMYLKLVQLFVAGDTSTVSPPAGRSLELKGQGNPVELITKARLFLLQLIPRCPKKSFSHVAELLADRGDCDPEVSAALQSRQQAAPDADLSQEPHLF
With B1 the “stoichiometry N” value was 2.
